Source: IntAct's records for PubMed 16902413

Target: nebu_human NEB (UniProt P20929)

Substance	effect of a mutation on the interaction
Titin (Homo sapiens), Q8WZ42 P254G	decreasing interaction
Titin (Homo sapiens), Q8WZ42 P269G	decreasing interaction
Titin (Homo sapiens), Q8WZ42 P266G	decreasing interaction

Results, then the substance that gave them:

effect of a mutation on the interaction	Substance
decreasing interaction	Titin (Homo sapiens), Q8WZ42 P268G
decreasing interaction	Titin (Homo sapiens), Q8WZ42 P258G
